# Results: patent publication US20170037149A1 (Amgen, published 2017)
# Numbering of substitutions follows the chain as printed.
# B1: FL-18 scFv (scFv)
# scFv: QVTLKESGPVLVKPTQTLTLTCTFSGFSLSNARMGVSWIRQPPGKALEWLAHIFSNDEKSFSTSLKNRLTISKDTSKSQVVLTMTNMDPVDTATYYCARMVGYGSGWYAYFDYWGQGTQVTVSSGGGGSGGGGSGGGGSDIQMTQSPSSLSASVGDRVTITCRASQSISSYLNWYQQKPGKAPKLLIYAASSLQSGVPSRFSGSGSGTDFTLTISSLQPEDFATYYCLQHNSYPLTFGGGTKVEIK
# notes: periplasmic prep
# B2: FL-41 scFv (scFv)
# scFv: B1 scFv with A46C, G239C
# notes: periplasmic prep
# B3: FL-3 scFv (scFv)
# scFv: QVTLKESGPALVKPTETLTLTCTVSGFSLSNARMAVSWIRQPPGKALEWLAHIFSNGEKSYSTSLKSRLTISKDTSKTQVVLTMTNTDPVDTATYFCARIVGYSDWLLPFDHWGQGIMVTVSSGGGGSGGGGSGGGGSDIQMTQSPSSLSASVGDRVTITCRASQNINRFLNWYQQKPGKAPKLLIYAASSLQSGVPSRFSGSGSGTDFTLTISSLQPEDFATYYCLQHNSYPWTFGQGTKVDIK
# notes: periplasmic prep
# B4: FL-57 scFv (scFv)
# scFv: QVTLKESGPTLVKPTETLTLTCTFSGFSLRYARMGVSWIRQPPGKALEWLAHISSNDEKSFSTALESRLTISTDTSKSQMVLTMTNVDPVDTATYYCARMPGDSNTWRGFFDYWGQGTLVTVSSGGGGSGGGGSGGGGSEIVMTQSPGTLSLSPGERATLSCRTSQTVTNSYIAWYQQRPGQAPRLLIYGTSTRATGIPDRFSGSGSGTDFTLTISRLEPEDFAVYYCQKYGSSPLTFGGGTKLEIK
# notes: periplasmic prep
# B5: FL-56 scFv (scFv)
# scFv: QVTLKESGPVLVKPTETLTLTCTVSGFSLRNVRMGVSWIRQPPGKALEWLAHIFSNDEKLYTTSLKSRLTISKDTSKSQVVLTMTNMDPEDTATYYCARIVGYGTGWYGYFDYWGQGTQVTVSSGGGGSGGGGSGGGGSDIQMTQSPSSLSASIGDRVTITCRASQDIRDDLGWYQREPGKAPKRLIYATSIRQSGVPSRFSGSGSGTEFTLTISGLQPEDFATYFCLQHHSFPLTFGGGTKVDIK
# notes: periplasmic prep
# B6: FL-1 scFv (scFv)
# scFv: QVTLKESGPVLVKPTETLTLTCTVSGFSLINARMGVSWIRQPPGKALEWLAHIFSNAEKSYRTSLKSRLTISKDTSKSQVVLTMTNMDPVDTATYYCARIPGYGGNGDYHYYGMDVWGQGTTVTVSSGGGGSGGGGSGGGGSDIQMTQSPSSLSASLGDRVTITCRASQGIRNDLGWYQQKPGKAPKRLIYASSTLQSGVPSRFSGSGSGTEFTLTISSLQPEDFATYYCLQHNNFPWTFGQGTKVEIK
# notes: periplasmic prep
# B7: FL-35 scFv (scFv)
# scFv: QVTLKESGPALVKPTETLTLTCTVSGFSLNNARMGVSWIRQPPGKALEWLAHIFSNDEKSYSTSLKNRLTISKDSSKTQVVLTMTNVDPVDTATYYCARIVGYGTGWYGFFDYWGQGTQVTVSSGGGGSGGGGSGGGGSDIQMTQSPSSLSASVGDRVTITCRASQDIRDDLVWYQQKPGKAPKRLIYGTSTLQSGVPSRFSGSGSGTEFTLTISSLQPEDFATYYCLQHHSYPLTFGGGTKLEIK
# notes: periplasmic prep
# B8: FL-60 scFv (scFv)
# scFv: QVTLKESGPALVKPTQTLTLTCTFSGFSLSNARMGVSWIRQPPGKALEWLAHIFSNDEKSYSTSLKSRLTISKDTSKRQVVLTMTNMDPVDTATYYCARMVGYGSGWYAYFDYWGQGTLVTVSSGGGGSGGGGSGGGGSDIVMTQTPLSLSVTPGQPASISCRSSQSLLHSNGYNYLYWYLQKPGQPPQLLIYEVSNRFSGVPDRFSGSGSGTDFTLKISRVEAEDVGVYYCMQALQTPLTFGGGTKVEIK
# notes: periplasmic prep
# B9: FL-8 scFv (scFv)
# scFv: QVTLKESGPALVKPTETLTLTCTVSGFSLSYARMGVSWIRQPPGKALEWLAQIFSNDEKSYSTSLKSRLTISKGTSNSQVVLTMTNMDPEDTATYYCARIVGYGTGWYGFFDYWGQGILVTVSSGGGGSGGGGSGGGGSDIQMTQSPSSLSASVGDRVTITCRASQGIRNDLGWYQQKPGKAPKRLIYAASSLQSGVPSRFSGSGSGTEFTLTISSLQPEDFATYYCLQHNSYPLTFGGGTKVDIK
# notes: periplasmic prep
# B10: FL-31 scFv (scFv)
# scFv: B9 scFv with E16Q, V24F, Y31N, Q52H, G74D, N77K, N86D, A164T, D244E
# notes: periplasmic prep
# B11: FL-19 scFv (scFv)
# scFv: QVTLKESGPTLVKPTETLTLTCTVSGFSLSYARMGVSWIRQPPGKALEWLAQIFSNDEKSYSTSLKSRLTISKDTSKSQVVLTMTDMDPEDTATYYCARIVGYGTGWYGYFDYWGQGTQVTVSSGGGGSGGGGSGGGGSDIQMTQSPSSLSASVGDRVTITCRASQDIGDDLGWYQQKPGKAPKRLIYAASTLQSGVPFRFSGSGSGTDFTLTISSLQPEDFATYYCLQHNSYPLTFGGGTKVEIK
# notes: periplasmic prep
# B12: FL-7 scFv (scFv)
# scFv: QVTLKESGPTLVKPTETLTLTCTVSGFSLNNARMGVSWIRQPPGKALEWLAHIFSNDEKSYSTSLKNRLTISKDSSKTQVVLTMTNVDPVDTATYYCARIVGYGTGWFGYFDYWGQGTQVTVSSGGGGSGGGGSGGGGSDIQMTQSPSSLSASVGDRVTITCRASQDIRTDLAWYQQKPGKAPKRLIYAASSLQSGVPSRFSGSGSGTEFTLTISSLQPEDFATYYCLQHNRYPLTFGGGTKVDIK
# notes: periplasmic prep
# B13: FL-64 scFv (scFv)
# scFv: QVQLVESGGGVVQPGRSLRLSCAASGFTFSSYGMHWVRQAPGKGLEWVAVISYDGSNEFYADSVKGRFTISRDNSKNTLYLQMNSLRAEDTAVYYCARGGEITMVRGVIGYYYYGMDVWGQGTTVTVSSGGGGSGGGGSGGGGSDIQMTQSPSSLSASVGNRVTITCRASQSISSYLNWYQQKPGKAPKLLIYAASSLQSGVPSRFSGSGSGTEFTLTISSLQPEDFATYYCLQHNSYPLTFGGGTKVDIK
# notes: periplasmic prep
# B14: FL-2 scFv (scFv)
# scFv: QVTLKESGPVLVKPTETLTLTCTVSGFSLRNARMGVSWIRQPPGKALEWLAHIFSNDEKTYSTSLKSRLTISRDTSKGQVVLTMTKMDPVDTATYYCARIPYYGSGSHNYGMDVWGQGTTVTVSSGGGGSGGGGSGGGGSDIQMTQSPSSLSASVGDRVTITCRASQDIRNDFGWYQQKPGKAPQRLLYAASTLQSGVPSRFSGSGSGTEFTLTISSLQPEDFATYYCLQYNTYPWTFGQGTKVEIK
# notes: periplasmic prep
# B15: FL-17 scFv (scFv)
# scFv: QVTLKESGPTLVKPTETLTLTCTVSGFSLSNARMGVSWIRQPPGKALEWLANIFSNDEKSYSTSLKSRLTISKGTSKSQVVLTMTNVNPVDTGTYYCARIVGYGSGWYGYFDYWGQGTLVTVSSGGGGSGGGGSGGGGSDIQMTQSPSSLSASVGDRVTITCRASQDIRNDLGWYQQKPGKAPKRLIYATSIRQSGVPSRFTGSGSGTEFTLTISGLQPEDFATYFCLQHNSFPLTFGGGTKVEIK
# notes: periplasmic prep
# B16: FL-40 scFv (scFv)
# scFv: B15 scFv with A46C, G239C
# notes: periplasmic prep
# B17: FL-55 scFv (scFv)
# scFv: QVQLVESGGGVVQPGRSLRLSCAASGFTFSSYGMHWVRQAPGKCLEWVAVISYDGSNKYYADSVKGRFTISRDNSKNTLYLQMNSLRAEDTAVYYCARSYGMDVWGQGTTVTVSSGGGGSGGGGSGGGGSDIQMTQSPSSVSASVGDRVTITCRASQGISSWLAWYQQKPGKAPKLLIYAASSLQSGVPSRFSGSGSGTDFTLTISSLQPEDFATYYCQQANSFPWTFGCGTKLEIK
# notes: periplasmic prep
# B18: FL-65 scFv (scFv)
# scFv: B17 scFv with C44G, C230Q
# notes: periplasmic prep
# B19: FL-30 scFv (scFv)
# scFv: QVTLKESGPVLVKPTQTLTLTCTFSGFSLSNARMGVSWIRQPPGKALEWLALIYWNDDKRYSPSLKSRLTITKDTSKNQVVLTMTNMDPVDTATYYCARMVGYGSGWYAYFDYWGQGTLVTVSSGGGGSGGGGSGGGGSDIQMTQSPSSLSASVGDRVTITCRASQGIRNDLGWYQQKPGKAPKRLIYAASSLQSGVPSRFSGSGSGTEFTLTISSLQPEDFATYYCLQHNSYPLTFGGGTKVEIK
# notes: periplasmic prep
# B20: FL-54 scFv (scFv)
# scFv: QVQLVESGGGVVQPGRSLRLSCAASGFTFSSYGMHWVRQAPGKCLEWVAVISYDGSNEFYADSVKGRFTISRDNSKNTLYLQMNSLRAEDTAVYYCARGGEITMVRGVIGYYYYGMDVWGQGTTVTVSSGGGGSGGGGSGGGGSEIVMTQSPATLSVSPGERATLSCRASQGVRNNLVWYQQKPGQAPRLLIYGASTRATGIPARFSGSGSGTEFTLTISSLQSEDFATYYCLQHNSYPLTFGCGTKVEIK
# notes: periplasmic prep
# B21: FL-62 scFv (scFv)
# scFv: B20 scFv with C44G, C244G
# notes: periplasmic prep; also called F-62
# Molecular target: T1, human FLT3 (human, UniProt P36888 27-993)
# T1 construct: On transfected CHO cells, or on the FLT3 positive human AML cell lines EOL-1 / MV4-11 where the row says so; also called hu FLT3; full length human FLT3
# Test: FACS, scFv on CHO-human FLT3 pre-incubated with FLT3 ligand (competitor)
# Procedure: The detection was performed using mouse anti-FLAG+PE-conjugated goat anti-mouse and the Fluorescence median detected by FACS (median (+ligand)/median (w/o ligand)*100%)
# Afterwards cells were not washed but directly stained with FLT3 binder (scFv's). […] As negative control, cells were incubated with an unspecific scFv instead of FLT3 scFv.
# For the evaluation of the data, the fluorescence median was detected by FACS.
row,median [+ligand]/median [w/o ligand]*100 [%],Binder
1,≥ 75,B1
2,≥ 75,B2
3,≥ 75,B3
4,≥ 75,B4
5,≥ 75,B5
6,≥ 75,B6
7,≥ 75,B7
8,≥ 75,B8
9,≥ 75,B9
10,≥ 75,B10
11,≥ 75,B11
12,≥ 75,B12
13,≥ 75,B13
14,≥ 75,B14
15,≥ 75,B15
16,≥ 75,B16
17,≥ 75,B17
18,≥ 75,B18
19,≥ 75,B19
20,≥ 75,B20
21,≥ 75,B21
